Source: patent US20130302353A1 (published 2013)

Key:
[1] = target: T1, FLAG-hAPRIL captured by BCMA-Fc (human, UniProt O75888 110-250; Q02223 1-54, limits assumed); assay: ELISA, FLAG-hAPRIL captured by coated BCMA-Fc
T1 construct: also called APRIL-BCMA complex; receptor-ligand complex; not shown: FLAG tag; Fc of human IgG1
T1 sequence (looked up) 1: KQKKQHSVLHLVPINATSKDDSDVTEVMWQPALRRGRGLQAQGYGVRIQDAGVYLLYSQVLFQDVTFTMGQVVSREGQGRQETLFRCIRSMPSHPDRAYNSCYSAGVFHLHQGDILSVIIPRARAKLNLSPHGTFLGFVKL
T1 sequence (looked up) 2: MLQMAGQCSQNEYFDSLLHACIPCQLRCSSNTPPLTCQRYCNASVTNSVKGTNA
Description: Protein-based ELISA experiments using purified hAPRIL.01A and hAPRIL.03A antibodies were performed to determine apparent binding affinities (reported as EC₅₀ values). Binding was compared to mouse anti-hAPRIL IgG1 Aprily-5 (Alexis). Maxisorp 96-well immunoplates (Nunc) were coated with either rabbit anti-FLAG polyclonal antibody (Sigma) or BCMA-Fc (R&D Systems) at 50 ng/well in PBS overnight at 4° C. and blocked with 10% Goat serum/PBST for 1 hour at RT. Plates were washed with PBST 3 times and incubated with supernatant (1:4 in PBS) containing FLAG-hAPRIL for 1 hour at RT. Plates were again washed with PBST 3 times and incubated with hAPRIL.01A, hAPRIL.03A, and Aprily-5 antibodies (10 μg/ml high test with 10-fold dilutions in triplicates) for 1 h at RT. After three washes with PBST, bound antibodies were detected with goat anti-mouse IgG-HRP (1:2,000) (Southern Biotechnology) for 1 hour at RT. Plate was washed three times with PBST, and APRIL-reactivity was visualized with OptiEIA TMB substrate (Becton Dickinson). The concentration for half-maximal binding is reported as a measure of relative binding affinity. When FLAG-hAPRIL was captured by the anti-FLAG antibody (FIG. 2A), EC₅₀ values for hAPRIL.01A, hAPRIL.03A and Aprily-5 were calculated as 2.2, 1.4, and 1.7 nM, respectively. […] In contrast, binding of hAPRIL.03A to the APRIL-BCMA complex was observed.

[2] = target: T2, IRSMPSHPDRA (SEQ ID NO:33) (human); assay: Pepscan ELISA on linear and CLIPS peptides
T2 construct: the peptides on the cards were longer and mostly CLIPS-constrained
T2 peptide: IRSMPSHPDRA
Description: (§1) The synthetic linear and CLIPS peptides were synthesized and screened using credit-card format mini PEPSCAN cards (455-well plate with 3 ul wells) as described by Slootstra et al. (Slootstra et al., 1996, Mol. Diversity. 1, 87-96) and Timmerman et al. (Timmerman et al., 2007, J. Mol. Recognit. 20, 283-299). The binding of antibodies (hAPRIL.01A and hAPRIL.03A) to each peptide was tested in a PEPSCAN-based enzyme-linked immuno assay (ELISA). The 455-well creditcard-format polypropylene cards, containing the covalently linked peptides, were incubated with sample (for example 1 ug/ml antibody diluted in a PBS solution containing 5% horse serum (vol/vol) and 5% ovalbumin (weight/vol)) and 1% Tween 80 (4° C., overnight). After washing the peptides were incubated with an anti-antibody peroxidase (dilution 1/1000, for example rabbit anti-mouse peroxidase, Southern Biotech) (1 hour, 25° C.), and subsequently, after washing the peroxidase substrate 2,2′-azino-di-3-ethylbenzthiazoline sulfonate (ABTS) and […] 3% H2O2 were added. After 1 hour the color development was measured. The color development of the ELISA was quantified with a CCD-camera and an image processing system. […]
(§2) Each antibody was tested on all 4225 peptides and their binding values were ranked. […] For hAPRIL.01A it was determined that it binds to […] […]

[3] = target: T3, VSREGQGRQ (SEQ ID NO:38) motif (human); assay: Pepscan ELISA on linear and CLIPS peptides
T3 construct: the peptides on the cards were longer and mostly CLIPS-constrained; also called core region EGQ
T3 peptide: VSREGQGRQ
Description: as §1, §2

binding result [1] | binding result [2] | binding result [3] | Binder
no binding (tested: 10 µg/ml high test) | binds | – | hAPRIL.01A (antibody, IgG1, V domains shown, Mouse antibody from a hybridoma; also called hAPRIL.01A hybridoma supernatant; purified hAPRIL.01A) VH: EVQLQQSGPELVKPGASVKMSCKASGYTFTSYVMHWVKQKPGQGLEWIGYINPYNDAPKYNEKFKGKATVTSDKSSGTAYMELSSLTSEDSAVYYCARGLGYALYYAMDYWGQGTSVTVSS VL: DIVMTQSQKFKSTSVGDRVSVTCKASQNVGNNVAWYQQKAGQSPKALISSASNRDSGVPDRFTGSGSGTDFTLTISNVQSEDLADYFCQQYNIYPFTFGSGTELEIK
– | – | binds | hAPRIL.03A (antibody, IgG1, V domains shown, Mouse antibody from a hybridoma; also called hAPRIL.03A hybridoma supernatant; purified hAPRIL.03A) VH: QVTLKESGPGILQPSQTLSLTCSFSGFSLSTYGIGVGWIRQPSGKGLEWLAHIWWNDNKYYNTALKSRLTISKDTSNNQVFLKIASVDTADTATYYCARIAGGNYDYAMDHWGQGTSVTVSS VL: QIVLTQSPAIMSTSPGEKVTLTCSASSSVSSTYLYWYQQKPGSSPKLWIYSTSNLASGVPARFSGSGSGTSYSLTISSMEAEDAASYFCHQWSSYPPTFGAGTKLELK
